Experimental data published in PMC8183418.
Read-outs that look alike come from different tables or passages of the source.

Key:
ISG20 [1] = target: T1, ISG20 (UniProt Q96AZ6 1-181); experiment: EMSA
ISG20 [2] = target: T1, ISG20; experiment: EMSA; remark: listed apart in the source

T1 sequence (Q96AZ6 whole entry): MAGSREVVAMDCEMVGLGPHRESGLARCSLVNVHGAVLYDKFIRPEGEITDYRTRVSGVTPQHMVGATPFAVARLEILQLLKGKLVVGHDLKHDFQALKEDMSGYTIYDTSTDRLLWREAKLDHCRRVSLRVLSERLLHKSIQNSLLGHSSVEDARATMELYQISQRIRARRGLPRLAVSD

| Binder | binding result (ISG20 [1]) | binding result (ISG20 [2]) |
| --- | --- | --- |
| GGTCGTCCGCAGGATTCAGCGCCG (ssDNA) [033: (-) ssDNA] | binds | – |
| GGTUGTUUGUAGGATTUAGUGUUG (ssDNA, all deoxycytidines replaced by deoxyuridine; U = dU) [035: dU-containing (-) ssDNA] | – | binds |
| CGGCGCTGAATCCTGCGGACGACC (ssDNA) [036: (+) ssDNA] | binds | – |
